{"source": "patent US20050009847A1", "about": "“Compounds and methods for increasing neurogenesis” (published 2005)", "target": "alpha-subunit of the stimulatory G protein (Gs), mouse (mouse, UniProt P63094)", "assay": "cell-based or functional assay", "data": [{"binder": "Cholera toxin from Vibrio Cholerae (other) NDDKLYRADSRPPDEIKQSGGLMPRGQSEYFDRGTQMNINLYDHARGTQTGFVRHDDGYVSTSISLRSAHLVGQTILSGHSTYYIYVIATAPNMFNVNDVLGAYSPHPDEQEVSALGGIPYSQIYGWYRVHFGVLDEQLHRNRGYRDRYYSNLDIAPAADGYGLAGFPPEHRAWREEPWIHHAPPGCGNAPRSSMSNTCDEKTQSLGVKFLDEYQSKVKRQIFSGYQSDIDTHNRIKDEL", "values": [{"measurement": "cAMP, fold induction over vehicle, adult mouse neural stem cells", "result": 3.1, "unit": "fold induction"}]}]}
